In patent publication US20250090677A1 (MULTITUDE THERAPEUTICS, published 2025) one finds Kd data, which are given here for 1 molecule.

For this assay, the target named is T1, Human CDH6-ECD-His (human, UniProt P55285 54-615).
T1 construct: extracellular domain; Bought protein; also called human CDH6-ECD-His recombinant protein; Human CDH6-EC6D-His; not shown: His tag
T1 sequence (looked up): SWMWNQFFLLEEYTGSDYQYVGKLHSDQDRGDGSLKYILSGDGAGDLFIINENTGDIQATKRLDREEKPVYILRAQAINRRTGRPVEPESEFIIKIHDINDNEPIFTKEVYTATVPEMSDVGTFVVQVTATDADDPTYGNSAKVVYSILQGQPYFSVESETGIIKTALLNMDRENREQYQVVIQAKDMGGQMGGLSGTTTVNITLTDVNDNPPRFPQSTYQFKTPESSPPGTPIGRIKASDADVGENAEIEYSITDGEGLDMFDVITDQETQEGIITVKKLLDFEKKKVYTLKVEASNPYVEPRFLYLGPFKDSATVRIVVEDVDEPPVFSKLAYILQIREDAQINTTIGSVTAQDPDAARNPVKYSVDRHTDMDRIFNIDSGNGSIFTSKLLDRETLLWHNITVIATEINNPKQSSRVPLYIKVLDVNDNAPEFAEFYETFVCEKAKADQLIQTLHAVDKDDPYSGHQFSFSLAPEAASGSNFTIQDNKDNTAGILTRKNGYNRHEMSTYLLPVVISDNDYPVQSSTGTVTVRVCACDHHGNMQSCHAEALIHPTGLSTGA
The assay is described as follows: BLI (Octet), antibody on AHC sensor, antigen 3.13-100 nM, 1:1 model. The protocol:
Binding affinities of CL069707-H1L1 and Ch069707 were measured using the Octet® system based on Bio-Layer Interferometry (BLI) technique. Antibodies were loaded to AHC (Anti-hIgG Fc Capture) at 100 nM concentration. […] From the six different binding curves obtained from each antigen concentration, binding constants (KD) were calculated based on the 1:1 binding model. CL069707-H1L1 and Ch069707 binds to human CDH6-ECD-His antigen with similar affinity. CL069707-H1L1 binds to human CDH6-ECD-His and cyno monkey CDH6-ECD-His antigens with similar affinity.
Background: BLI is a label-free optical method that tracks binding on a fibre tip over time.

B1: CL069707-H1L1 (antibody, human IgG1, kappa, V domains shown)
VH: EVQLVESGGGLVQPGGSLRLSCAASGFTFTTYAMNWVRQAPGKGLEWVARIRIKNNNYATYYADSVTDRFTISRDDSKNSLYLQMNSLKTEDTAVYYCVRPDYGNYGLAYWGQGTLVTVSS
VL: DIQLTQSPSSLSASVGDRVTITCSASSSISSHYLHWYQQKPGKSPKLLIYRSFYLASGVPSRFSGSGSGTDFTLTISSLQPEDFATYYCQQDIVPLTFGQGTKLEIKR
notes: Humanized IgG1/kappa, produced in 293 cells; also called humanized CL069707-H1L1
For the molecule B1, binding was characterised by a dissociation constant (Kd) of 3.08 nM.
